Residue numbers refer to the chain shown, from its start.
Legend:
Experiment in all cases: high-throughput RNA pulldown from lysate on Ni-NTA beads; HRP: 50 mM Tris pH 8, 150 mM NaCl, 1 mM beta-mercaptoethanol, 50 ug/ml BSA, 3 ug/ml yeast RNA, 0.5% heparin; ITC and FP: Tris pH 8, 200 mM KCl, 5% glycerol; MST: 50 mM Tris pH 8, 200 mM NaCl, 1 mM DTT, BSA, heparin, 0.05% Tween 20
Settings in all cases: tags: N-terminal His-eGFP
[1] = molecular target: T1, GFP-9S library array, motif 4 ND N98G;D124T (synthetic construct, N98G;D124T)
T1 chain: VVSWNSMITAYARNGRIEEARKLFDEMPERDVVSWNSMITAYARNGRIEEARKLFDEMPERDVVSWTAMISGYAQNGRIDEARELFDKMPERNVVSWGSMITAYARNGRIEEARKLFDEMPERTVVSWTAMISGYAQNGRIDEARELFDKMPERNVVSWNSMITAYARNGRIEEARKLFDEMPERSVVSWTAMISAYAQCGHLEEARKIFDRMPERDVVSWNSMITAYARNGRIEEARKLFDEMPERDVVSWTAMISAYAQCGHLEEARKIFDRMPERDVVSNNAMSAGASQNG

[2] = molecular target: T2, GFP-9S library array, motif 4 ND N98M (synthetic construct, N98M)
T2 chain: T1 chain with G98M, T124D

[3] = molecular target: T3, GFP-9S library array, motif 4 ND N98D;D124R (synthetic construct, N98D;D124R)
T3 chain: T1 chain with G98D, T124R

[4] = molecular target: T4, GFP-9S library array, motif 4 ND N98F;D124M (synthetic construct, N98F;D124M)
T4 chain: T1 chain with G98F, T124M

[5] = molecular target: T5, GFP-9S library array, motif 4 ND N98F;D124W (synthetic construct, N98F;D124W)
T5 chain: T1 chain with G98F, T124W

AUUAUACGUGA (ssRNA) [IR-rpoA-U]
Kd ([1]; label: 5' IRDye 800CW): 236 nM
Kd ([2]; label: 5' IRDye 800CW): 129 nM
Kd ([3]; label: 5' IRDye 800CW): 282 nM
Kd ([4]; label: 5' IRDye 800CW): 194 nM
Kd ([5]; label: 5' IRDye 800CW): 364 nM

AUUAGACGUGA (ssRNA) [Cy5-rpoA-G]
Kd ([1]; label: 5' Cy5): 436 nM
Kd ([2]; label: 5' Cy5): 43.1 nM
Kd ([3]; label: 5' Cy5): 155 nM
Kd ([4]; label: 5' Cy5): 69.1 nM
Kd ([5]; label: 5' Cy5): 72.2 nM

AUUAAACGUGA (ssRNA) [IR-rpoA-A]
Kd ([1]; label: 5' IRDye 800CW): 108 nM
Kd ([2]; label: 5' IRDye 800CW): 296 nM
Kd ([3]; label: 5' IRDye 800CW): 326 nM
Kd ([4]; label: 5' IRDye 800CW): 230 nM
Kd ([5]; label: 5' IRDye 800CW): 236 nM

AUUACACGUGA (ssRNA) [Cy5-rpoA]
Kd ([1]; label: 5' Cy5): 169 nM
Kd ([2]; label: 5' Cy5): 143 nM
Kd ([3]; label: 5' Cy5): 154 nM
Kd ([4]; label: 5' Cy5): 76.7 nM
Kd ([5]; label: 5' Cy5): 99.3 nM

From paper PMC8809517, “Cofactor-independent RNA editing by a synthetic S-type PPR protein”
